Measurements as given in patent US20200199233A1 (Regeneron, published 2020).
Where “and” joins values, the source holds several entries; their conditions need not be identical. Equal entries are not always repeated. One block for each binder: values may come before it.

What was measured:
[1] = molecular target: T1, cynomolgus CD28 on cynomolgus T cells (cynomolgus monkey, UniProt Q0PDN3 19-220); experiment: flow cytometry, cynomolgus CD4+ T cells
T1 construct: whole, on cells
Protocol: (§1) After incubation, the cells were washed twice with cold PBS containing 1% filtered FBS and a PE-conjugated or Alexa647-conjugated anti-human secondary antibody was added to the MUC16 expressing cells or Human/Cyno T cells, respectively, and incubated for an additional 30 minutes. Live/dead dye was added to Human and Cynomolgus T cells incubations. Wells containing no antibody or secondary only were used as a control.
(§2) After incubation with Human or Cynomolgus T cells, cells were washed, and stained with a cocktail of anti-CD2, ant-CD16, anti-CD4, and anti-CD8 antibodies in Brilliant Stain Buffer for an extra 20 min incubation at 4° C. After wash, cells were re-suspended in 200 μL cold PBS containing 1% filtered FBS, gated in a Live/CD2+/CD4+/CD16− or Live/CD2+/CD8+/CD16− gate and analyzed by Flow cytometry on a BD FACS LSR-Fortessa-X20.

[2] = molecular target: T2, human CD28 on human T cells (human, UniProt P10747 19-152); experiment: cell-based or functional assay
[3] = molecular target: T2, human CD28 on human T cells; experiment: flow cytometry, human CD4+ T cells
Protocol: as §1, §2

[4] = molecular target: T1, cynomolgus CD28 on cynomolgus T cells; experiment: flow cytometry, cynomolgus CD8+ T cells
Protocol: as §1, §2

[5] = molecular target: T2, human CD28 on human T cells; experiment: cell-based or functional assay; remark: listed apart in the source
[6] = molecular target: T2, human CD28 on human T cells; experiment: flow cytometry, human CD8+ T cells
Protocol: as §1, §2

hMUC16.mmh = molecular target: T3, hMUC16.mmh (human); experiment: SPR (Biacore), 37 C, antibody captured by anti-human Fc, hMUC16.mmh injected
T3 construct: also called hMUC16 with C-term myc-myc-6xHis tag; human MUC16 membrane proximal domain (P13810-P14451) having a myc-myc-his tag
T3 chain: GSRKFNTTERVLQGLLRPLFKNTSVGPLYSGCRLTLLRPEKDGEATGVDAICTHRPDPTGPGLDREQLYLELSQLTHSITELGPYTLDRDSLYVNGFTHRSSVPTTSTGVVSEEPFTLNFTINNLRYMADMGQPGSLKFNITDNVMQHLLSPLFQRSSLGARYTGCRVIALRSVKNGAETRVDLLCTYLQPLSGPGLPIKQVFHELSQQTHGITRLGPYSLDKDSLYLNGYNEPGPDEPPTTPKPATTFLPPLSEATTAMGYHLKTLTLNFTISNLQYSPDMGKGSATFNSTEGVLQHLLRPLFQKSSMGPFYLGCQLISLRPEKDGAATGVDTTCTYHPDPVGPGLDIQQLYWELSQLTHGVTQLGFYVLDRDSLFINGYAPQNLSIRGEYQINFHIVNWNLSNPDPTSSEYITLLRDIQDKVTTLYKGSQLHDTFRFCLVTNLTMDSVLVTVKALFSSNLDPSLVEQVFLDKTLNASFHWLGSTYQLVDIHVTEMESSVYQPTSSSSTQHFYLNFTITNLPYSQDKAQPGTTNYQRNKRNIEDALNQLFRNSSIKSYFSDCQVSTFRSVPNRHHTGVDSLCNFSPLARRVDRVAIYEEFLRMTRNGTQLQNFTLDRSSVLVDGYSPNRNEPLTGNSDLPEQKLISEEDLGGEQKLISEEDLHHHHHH
Protocol: (§3) The dissociation of bound hMUC16, hCD28, and mCD28 reagents was monitored for 10 minutes in HBS-ET running buffer. Association (kₐ) and dissociation (kd) rate constants were determined by fitting the real-time binding sensorgrams to a 1:1 binding model with mass transport limitation using Scrubber evaluation software version 2.0c. Binding dissociation equilibrium constants (KD) and dissociative half-lives (t½) were calculated from the kinetic rate constants as:

hCD28.mmh = molecular target: T4, hCD28.mmh (human); experiment: SPR (Biacore), 37 C, antibody captured by anti-human Fc, hCD28.mmh injected
T4 construct: also called hCD28 with C-term myc-myc-6xHis tag; human CD28 ecto domain (N19-P152) having a myc-myc-his tag
Protocol: as §3

B2: Parental 2 hCD28 (for bs24963D) (antibody, V domains shown)
VH: QVQLQESGPGLVKPSETLSLTCTVSGGSISSYYWSWIRQPPGKGLEWIGYIYYSGITHYNPSLKSRVTISVDTSKIQFSLKLSSVTAADTAVYYCARWGVRRDYYYYGMDVWGQGTTVTVSS
VL: not shown
IL-2 release from primary human CD4+ T cells, fold induction, OVCAR3 target cells, 5 nM hIgG4 isotype control [2]: 1.12 fold
IL-2 release from primary human CD4+ T cells, fold induction, PEO-1 target cells, 5 nM hIgG4 isotype control [2]: 1.03 fold
IL-2 release from primary human CD4+ T cells, EC50, PEO-1 target cells, 5 nM REGN4018 [5]: 0.000107 µM
IL-2 release from primary human CD4+ T cells, fold induction, OVCAR3 target cells, 5 nM REGN4018 [5]: 2.46 fold
IL-2 release from primary human CD4+ T cells, fold induction, PEO-1 target cells, 5 nM REGN4018 [5]: 2.05 fold

B4: Parental 1 hCD28 (for bs32897D) (antibody, V domains shown)
VH: EVQLVESGGGLVQPGGSLRLSCAASGFTFSRNNMHWVRQAPGKGLEYVSGISSNGGRTYYADSVKGRFTISRDNSKNTLYLQMGGLRAADMAVYFCTRDDELLSFDYWGQGTLVTVSS
VL: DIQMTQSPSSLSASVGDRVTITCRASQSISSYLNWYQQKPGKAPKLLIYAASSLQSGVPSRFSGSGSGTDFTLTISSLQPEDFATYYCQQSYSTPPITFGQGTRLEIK
IL-2 release from primary human CD4+ T cells, fold induction, OVCAR3 target cells, 5 nM hIgG4 isotype control [2]: 1.1 fold
IL-2 release from primary human CD4+ T cells, fold induction, PEO-1 target cells, 5 nM hIgG4 isotype control [2]: 1.3 fold
IL-2 release from primary human CD4+ T cells, fold induction, OVCAR3 target cells, 5 nM REGN4018 [5]: 1.58 fold
IL-2 release from primary human CD4+ T cells, fold induction, PEO-1 target cells, 5 nM REGN4018 [5]: 1.42 fold

Second part, the binder after the results:

EC50 [1]: 0.203 µM
IL-2 release from primary human CD4+ T cells, fold induction, OVCAR3 target cells, 5 nM hIgG4 isotype control [2]: 1.33 fold
IL-2 release from primary human CD4+ T cells, fold induction, PEO-1 target cells, 5 nM hIgG4 isotype control [2]: 1.12 fold
EC50 [3]: 0.261 µM
EC50 [4]: 0.122 µM
IL-2 release from primary human CD4+ T cells, EC50, OVCAR3 target cells, 5 nM REGN4018 [5]: 0.000401 µM
IL-2 release from primary human CD4+ T cells, EC50, PEO-1 target cells, 5 nM REGN4018 [5]: 0.000996 µM
IL-2 release from primary human CD4+ T cells, fold induction, OVCAR3 target cells, 5 nM REGN4018 [5]: 5.32 fold
IL-2 release from primary human CD4+ T cells, fold induction, PEO-1 target cells, 5 nM REGN4018 [5]: 10.9 fold
EC50 [6]: 0.253 µM
Kd (hMUC16.mmh): 0.000933 µM and 0.000912 µM
T½ (hMUC16.mmh): 53.1 min and 28 min
koff (hMUC16.mmh): 0.000412 s⁻¹ and 0.000218 s⁻¹
kon (hMUC16.mmh): 441000 M⁻¹ s⁻¹ and 238000 M⁻¹ s⁻¹
Kd (hCD28.mmh): 0.165 µM
T½ (hCD28.mmh): 2.1 min
koff (hCD28.mmh): 0.00538 s⁻¹
kon (hCD28.mmh): 32700 M⁻¹ s⁻¹
B1: bs24963D (bispecific antibody, IgG4, V domains shown)
VH 1: B2 VH
VH 2: EVQLVESGGGLEQPGRSLRLSCTASGFAFGDHTMSWVRQAPGKGLEWVGFIRSRAYGGTTEYAASVKGRFTISRDDSKSIAYLQMDSLKTEDTAVYYCTSGGYDSSLHYYYYYHGMDVWGRGTTVTVSS
VL: not shown
notes: Two different heavy chains pair with a common light chain; also called REGN5668; anti-MUC16xCD28

EC50 [1]: 5.7 µM
IL-2 release from primary human CD4+ T cells, fold induction, OVCAR3 target cells, 5 nM hIgG4 isotype control [2]: 1.06 fold
IL-2 release from primary human CD4+ T cells, fold induction, PEO-1 target cells, 5 nM hIgG4 isotype control [2]: 1.12 fold
EC50 [3]: 9.16 µM
EC50 [4]: 3.02 µM
IL-2 release from primary human CD4+ T cells, EC50, OVCAR3 target cells, 5 nM REGN4018 [5]: 0.000607 µM
IL-2 release from primary human CD4+ T cells, fold induction, OVCAR3 target cells, 5 nM REGN4018 [5]: 5.63 fold
IL-2 release from primary human CD4+ T cells, fold induction, PEO-1 target cells, 5 nM REGN4018 [5]: 5.22 fold
EC50 [6]: 7.58 µM
B3: bs32897D (bispecific antibody, V domains shown)
VH 1: B4 VH
VH 2: QVQLVESGGGLVKPGGSLRLSCAASGFTFRDYSMSWIRQAPGKGLEWVSYVTFFNSAIYYADSVKGRFTISRDNAKNSLYLQMNSLRAEDTAVYYCAREREPIVGGFDYWGQGTLVTVSS
VL: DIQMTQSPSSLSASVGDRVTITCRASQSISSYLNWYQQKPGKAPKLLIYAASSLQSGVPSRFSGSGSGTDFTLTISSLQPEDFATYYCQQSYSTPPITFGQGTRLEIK
notes: also called anti-MUC16xCD28
